Laboratory results from PMC4275180.

Experiments:
[1] = biological target: Stat1 (UniProt P42224); test: FLAG co-IP, western blot; conditions: reference: wild type FLAG-KDM3A; sites S264
[2] = biological target: Stat1 (UniProt P42224); test: GST pull-down after in vitro kinase reaction; conditions: reference: His-KDM3A(1-394) not phosphorylated by MSK1; sites S264

Row | Substance | binding against the reference [1] | binding against the reference [2]
1 | KDM3A (from UniProt Q9Y4C1) S264A | lost | –
2 | KDM3A 1-394 (from UniProt Q9Y4C1) His-KDM3A(1-394) phosphorylated by recombinant MSK1 | – | gained
